Laboratory results taken from publication PMC3925751.

Molecular target: the model collagen surfaces
Assay: SPR

“lubricin (PRG4), purified from human synovial fluid (natural protein)” gave an adsorbed amount of 1 to 2 mg/m^2.
